Tests used:
[1] = tested on: src-, raf-, ras- and HPV-transformed CREF cells; test: Luciferase reporter assay of p-CCN1-luc and/or TPA in transformed CREF cells; format: cell-based, rat; details: for effect on expression of the tCCN1-Prom: TPA 200 ng/ml
Protocol: FIGS. 1A and B. tCCN1 promoter activity in Prostate cancer (PC) and cloned rat embryo fibroblast (CREF) series of cell lines. […] B. src-, raf-, ras- and HPV-transformed CREF cells were treated with p-CCN1-luc and/or TPA (200 ng/ml).

[2] = tested on: prostate cancer cells lines DU-145, PC-3, ARCaP, ARCaP-E, ARCaP-M and normal human prostate epithelial cell lines RWPE-1 and P69; test: Dual-luciferase reporter assay of promoter activity (pCCN1-luc vs pPEG-luc); format: cell-based; details: pGL3-luc reporter, normalized with pRL-TK
Excerpt: FIGS. 1A and B. tCCN1 promoter activity in Prostate cancer (PC) and cloned rat embryo fibroblast (CREF) series of cell lines. A. Prostate cancer DU-145, PC-3, ARCaP, ARCaP-E, and ARCaP-M cells and normal RWPE-1 and P69 cells were transfected with pGL3-luc reporter vector driven by PEG-Prom (pPEG-luc) or tCCN1-Prom (pCCN1-luc). pRL-TK (Renilla luciferase) was co-transfected for the normalization of luciferase activity, and the luminescence readings were plotted as relative luminescence units (RLU). *(p<0.05), **(p<0.01) and ***(p<0.001) indicates the statistical significance by using t-test between pPEG-luc and pCCN1-luc transfected cells. B. src-, raf-, ras- and HPV-transformed CREF cells were treated with p-CCN1-luc and/or TPA (200 ng/ml). The results were recorded as RLU. *(p<0.05) and **(p<0.01) indicates the statistical significance between pCCN1-luc and pCCN1-luc plus TPA treated cells.
Prostate cancer cells were plated at seeding density of 30,000 cells/well in quadruplicate in 24-well cell culture plate. After 24 h, cells were transfected with either pGL3.PEG-luc or pGL3.CCN1-hie using Fugene® HD transfection reagent (Promega, Madison, Wis., USA). […] Cells were lysed after 48 h of post transfection and luminescence was studied using Dual-luciferase Reporter® Assay system (Promega) with luminometer. […]

[3] = tested on: breast, brain (including Glioblastoma multiforme, GBM) and melanoma; test: tCCN1-Prom expression in additional human cancers vs normal counterparts (data not shown); format: cell-based

Molecule	effect on expression of the tCCN1-Prom [1]	tCCN1-Prom activity compared with PEG-Prom (relative luminescence units) [2]	tCCN1-Prom expression in additional human cancers vs normal counterparts [3]	tCCN1-Prom activity in transformed CREF cells ([1]; src-, raf-, ras- and HPV-transformed CREF cells)
CCCCCCCCCCCCCC(=O)O[C@@H]1[C@@H](C)[C@@]2(O)[C@@H](C=C(CO)C[C@]3(O)C(=O)C(C)=C[C@@H]23)[C@@H]2C(C)(C)[C@]12OC(C)=O [TPA]	increased the expression of the tCCN1-Prom	–	–	–
Nc1ncnc2c1ncn2[C@@H]1O[C@@H]2COP(=O)(O)O[C@H]2[C@H]1O [cyclic adenosine mono-phosphate (AMP), cyclic adenosine mono-phosphate]	increased the expression of the tCCN1-Prom	–	–	–
tCCN1-Prom: truncated CCN1 cancer selective promoter, SEQ ID NO: 1; tested in reporter plasmid pGL3.CCN1-luc (pCCN1-luc) (nucleic acid, Synthetic promoter) DNA: TCCAAAAACAAACAAGTACAACATACCCAAAAGAGGGAAGGGCTGGAGGAGTGGGGGAGACCTCTGCCTGGGAATTTGCCAGACGATGGGCAAGTTTCCCCCCGCCCCACCCCCCCCCCCGCCTTTTCATTCATAAATGCCACTGTGGGTATTAATTTGCAATTCACTGAACTTTGCTAATAAACATCATGCCAAAGCTTTGGGACTTGTTCCGAACACGCCTCTTTGAAGTCCACAAATATTCCTGACTCAGAGACACACTCCTCTTCCCCGTTCTACTCTTTCAACAGATAACTTGCCTCTCACCTTCGCTGTAAAAAAGCAAACAGCTCACTGCCTTCCCGGGTGAGGGCTTCAGTGGCTGCCCGGTCAACTCGCATCACCAAACAAAACGACTTTTGTTCCTCCCTCTCAGGTCCTCCCACCCACCCAGTCCAGGCAAAGTTCTGAACTGGCCCCCTCGCCCCTCACGACCCTCCAACTACCATCACCACCATCACGCCCCAAAGAACCCTTCCCAACATAAGTCGTAATTTAAGGTGGAAAAAACGAACTGTTTTCTTGACGGGTCTGGGACACACACACACACACACACACACACACACACCGAACTGTTTTCTTGACGGGTCTGGGAGACACACACACACACACACACACACACACACACACACACACACACACAAAGGTGCAATGGGGCCAGGGGAGGCGCTTGGCAGCAGCCCGCGCCAACCAGCATTCCTGAGATGTTTGAGAATTCTGGAACGCGCAGACAGAGCCGACGTCACTGCAACACGCGGCGCCTCCGCCGGCCCGTATAAAAGGCGGGCTCCGGGGCGCC	–	more active than the PEG-Prom in prostate cancer cells as compared to normal counterparts RWPE-1 and P69	elevated expression in additional human cancers vs. normal immortal or primary normal counterparts	elevated as a function of transformation of CREF cells by diverse acting oncogenes
